Measured values published in the supplement of paper PMC10065799, “High-throughput profiling of sequence recognition by tyrosine kinases and SH2 domains using bacterial peptide display” (eLife, 2023).

What was measured:
AncSZ = assay: phosphorylation enrichment, bacterial display (enrichment ratio); higher = better substrate or ligand; peptides without Tyr show the background
EPHB1 = EPHB1 (UniProt P54762); assay: as above
EPHB2 = EPHB2 (UniProt P29323); assay: as above
FGFR1 = FGFR1 (UniProt P11362); assay: as above
Chain of FGFR1 (P11362 whole entry, looked up): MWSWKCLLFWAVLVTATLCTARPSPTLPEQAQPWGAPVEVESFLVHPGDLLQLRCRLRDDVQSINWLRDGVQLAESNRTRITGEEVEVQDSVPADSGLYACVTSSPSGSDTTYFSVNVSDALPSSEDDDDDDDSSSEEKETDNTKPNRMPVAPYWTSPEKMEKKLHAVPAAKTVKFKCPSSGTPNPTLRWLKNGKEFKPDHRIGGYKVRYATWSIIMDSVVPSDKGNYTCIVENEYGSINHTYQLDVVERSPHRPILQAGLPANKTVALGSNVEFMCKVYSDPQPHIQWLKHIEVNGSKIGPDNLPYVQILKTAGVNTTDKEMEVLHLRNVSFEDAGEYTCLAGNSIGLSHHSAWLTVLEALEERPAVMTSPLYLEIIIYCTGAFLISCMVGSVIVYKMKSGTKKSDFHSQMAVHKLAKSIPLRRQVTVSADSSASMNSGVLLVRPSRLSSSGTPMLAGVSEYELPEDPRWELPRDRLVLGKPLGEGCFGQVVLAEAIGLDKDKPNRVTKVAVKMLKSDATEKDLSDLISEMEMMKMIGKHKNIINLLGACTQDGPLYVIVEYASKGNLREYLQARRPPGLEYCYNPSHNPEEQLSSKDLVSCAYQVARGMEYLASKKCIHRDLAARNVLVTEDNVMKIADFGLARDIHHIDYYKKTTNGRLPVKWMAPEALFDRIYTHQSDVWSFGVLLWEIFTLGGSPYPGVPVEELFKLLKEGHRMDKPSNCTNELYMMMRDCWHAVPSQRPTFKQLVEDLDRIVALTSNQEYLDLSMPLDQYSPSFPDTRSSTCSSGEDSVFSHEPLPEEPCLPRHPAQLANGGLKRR

FGFR3 = FGFR3 (UniProt P22607); assay: as above
Fer (mouse) = assay: as above
Fes = Fes (UniProt P07332); assay: as above
Fyn = Fyn (UniProt P06241); assay: as above
Chain of Fyn (P06241 whole entry, looked up): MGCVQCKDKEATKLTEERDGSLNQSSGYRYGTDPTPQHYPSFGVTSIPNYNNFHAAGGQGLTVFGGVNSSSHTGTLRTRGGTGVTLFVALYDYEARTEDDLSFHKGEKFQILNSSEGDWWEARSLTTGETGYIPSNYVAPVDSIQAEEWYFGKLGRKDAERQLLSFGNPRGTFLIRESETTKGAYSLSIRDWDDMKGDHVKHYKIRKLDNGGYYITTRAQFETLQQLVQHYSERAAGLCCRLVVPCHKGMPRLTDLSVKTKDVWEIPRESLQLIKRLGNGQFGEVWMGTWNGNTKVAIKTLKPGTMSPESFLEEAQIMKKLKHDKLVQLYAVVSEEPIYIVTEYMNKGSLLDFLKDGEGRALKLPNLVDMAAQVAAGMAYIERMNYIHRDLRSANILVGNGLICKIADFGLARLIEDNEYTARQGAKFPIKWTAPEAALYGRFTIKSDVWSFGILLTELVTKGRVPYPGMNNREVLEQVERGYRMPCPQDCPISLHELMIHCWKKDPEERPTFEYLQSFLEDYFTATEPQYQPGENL

Hck = Hck (UniProt P08631); assay: as above
Jak2 = Jak2 (UniProt O60674); assay: as above
MERTK = MERTK (UniProt Q12866); assay: as above
Chain of MERTK (Q12866 whole entry, looked up): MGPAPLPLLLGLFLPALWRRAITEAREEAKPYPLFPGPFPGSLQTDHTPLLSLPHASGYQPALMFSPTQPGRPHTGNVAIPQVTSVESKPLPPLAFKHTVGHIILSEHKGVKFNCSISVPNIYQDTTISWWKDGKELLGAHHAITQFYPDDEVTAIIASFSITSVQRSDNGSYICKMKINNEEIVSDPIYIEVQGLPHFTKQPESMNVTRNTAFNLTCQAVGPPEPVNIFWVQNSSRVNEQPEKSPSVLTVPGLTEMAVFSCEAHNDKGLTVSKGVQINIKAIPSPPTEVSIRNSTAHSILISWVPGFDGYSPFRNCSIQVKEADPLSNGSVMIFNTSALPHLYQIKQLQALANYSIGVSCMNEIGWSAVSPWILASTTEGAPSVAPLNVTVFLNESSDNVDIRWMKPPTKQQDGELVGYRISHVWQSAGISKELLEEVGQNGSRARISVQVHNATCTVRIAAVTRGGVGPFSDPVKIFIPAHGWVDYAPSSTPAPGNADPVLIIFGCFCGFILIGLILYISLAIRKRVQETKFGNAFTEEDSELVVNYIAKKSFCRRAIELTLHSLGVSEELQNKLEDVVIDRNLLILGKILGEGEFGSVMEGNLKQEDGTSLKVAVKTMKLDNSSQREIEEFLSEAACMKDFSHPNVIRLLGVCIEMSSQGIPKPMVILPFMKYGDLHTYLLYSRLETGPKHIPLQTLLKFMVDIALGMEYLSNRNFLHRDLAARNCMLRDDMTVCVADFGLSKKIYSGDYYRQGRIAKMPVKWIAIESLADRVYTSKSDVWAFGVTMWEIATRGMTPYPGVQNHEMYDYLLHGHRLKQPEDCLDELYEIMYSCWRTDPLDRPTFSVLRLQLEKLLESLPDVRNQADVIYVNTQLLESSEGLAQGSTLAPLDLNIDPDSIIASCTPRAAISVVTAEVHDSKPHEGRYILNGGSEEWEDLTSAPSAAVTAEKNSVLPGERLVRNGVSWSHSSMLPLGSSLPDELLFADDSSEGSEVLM

c-Abl (mouse) = assay: as above
c-Src = assay: as above
Grb2 SH2 = Grb2 SH2 (UniProt P62993); assay: SH2 binding enrichment of the phosphorylated peptide, bacterial display (enrichment ratio); higher = better substrate or ligand; peptides without Tyr show the background
Chain of Grb2 SH2 (P62993 whole entry, looked up): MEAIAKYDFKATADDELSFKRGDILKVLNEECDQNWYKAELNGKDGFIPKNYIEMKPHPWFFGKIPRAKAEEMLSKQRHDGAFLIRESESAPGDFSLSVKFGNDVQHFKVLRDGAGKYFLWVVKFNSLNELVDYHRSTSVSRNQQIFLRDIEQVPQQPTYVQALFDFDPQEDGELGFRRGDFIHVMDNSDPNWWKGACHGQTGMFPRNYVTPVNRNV

SHP2-C SH2 = assay: as above
c-Src SH2 = assay: as above
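For SH2 binding enrichment of the phosphorylated peptide, bacterial display in this document: peptide library displayed on the E. coli surface as eCPX fusions, selected cells deep-sequenced, score is each peptide's frequency after selection divided by its frequency in the input.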
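For phosphorylation enrichment, bacterial display in this document: 11-residue human phosphosite peptides and single-mutation variants displayed on the E. coli surface, counted by deep sequencing, each peptide's frequency after selection divided by its frequency in the unselected input library; frequency after pTyr selection over input frequency; kinase dosed for 20-30% of maximal phosphorylation in three min.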

Chain of EPHB2 (P29323 whole entry, looked up): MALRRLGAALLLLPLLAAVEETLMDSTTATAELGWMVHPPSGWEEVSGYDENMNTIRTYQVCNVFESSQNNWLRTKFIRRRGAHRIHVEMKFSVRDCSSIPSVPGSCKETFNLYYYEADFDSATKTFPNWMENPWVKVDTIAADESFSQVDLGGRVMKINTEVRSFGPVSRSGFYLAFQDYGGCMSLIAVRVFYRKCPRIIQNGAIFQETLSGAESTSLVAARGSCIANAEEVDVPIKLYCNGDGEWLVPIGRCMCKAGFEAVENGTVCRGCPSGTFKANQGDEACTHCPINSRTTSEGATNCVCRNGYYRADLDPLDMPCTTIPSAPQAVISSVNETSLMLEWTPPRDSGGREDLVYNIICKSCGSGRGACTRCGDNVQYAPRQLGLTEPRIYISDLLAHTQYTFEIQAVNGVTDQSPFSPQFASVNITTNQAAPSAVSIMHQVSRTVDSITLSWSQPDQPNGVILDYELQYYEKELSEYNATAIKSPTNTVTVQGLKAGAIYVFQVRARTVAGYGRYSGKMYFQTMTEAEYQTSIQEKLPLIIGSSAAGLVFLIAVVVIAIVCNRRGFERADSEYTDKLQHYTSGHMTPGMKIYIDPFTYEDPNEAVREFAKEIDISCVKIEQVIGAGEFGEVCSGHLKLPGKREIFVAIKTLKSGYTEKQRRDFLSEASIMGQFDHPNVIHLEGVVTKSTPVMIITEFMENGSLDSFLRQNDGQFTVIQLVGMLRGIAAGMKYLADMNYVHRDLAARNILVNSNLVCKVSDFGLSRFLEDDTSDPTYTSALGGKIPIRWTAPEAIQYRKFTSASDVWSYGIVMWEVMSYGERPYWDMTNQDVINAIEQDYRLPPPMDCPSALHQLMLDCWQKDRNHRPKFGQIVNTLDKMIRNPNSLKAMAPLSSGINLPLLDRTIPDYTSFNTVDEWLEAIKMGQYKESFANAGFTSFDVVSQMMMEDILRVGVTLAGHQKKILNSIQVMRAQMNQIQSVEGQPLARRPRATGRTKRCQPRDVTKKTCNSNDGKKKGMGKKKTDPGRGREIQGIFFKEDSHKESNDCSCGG
Chain of EPHB1 (P54762 whole entry, looked up): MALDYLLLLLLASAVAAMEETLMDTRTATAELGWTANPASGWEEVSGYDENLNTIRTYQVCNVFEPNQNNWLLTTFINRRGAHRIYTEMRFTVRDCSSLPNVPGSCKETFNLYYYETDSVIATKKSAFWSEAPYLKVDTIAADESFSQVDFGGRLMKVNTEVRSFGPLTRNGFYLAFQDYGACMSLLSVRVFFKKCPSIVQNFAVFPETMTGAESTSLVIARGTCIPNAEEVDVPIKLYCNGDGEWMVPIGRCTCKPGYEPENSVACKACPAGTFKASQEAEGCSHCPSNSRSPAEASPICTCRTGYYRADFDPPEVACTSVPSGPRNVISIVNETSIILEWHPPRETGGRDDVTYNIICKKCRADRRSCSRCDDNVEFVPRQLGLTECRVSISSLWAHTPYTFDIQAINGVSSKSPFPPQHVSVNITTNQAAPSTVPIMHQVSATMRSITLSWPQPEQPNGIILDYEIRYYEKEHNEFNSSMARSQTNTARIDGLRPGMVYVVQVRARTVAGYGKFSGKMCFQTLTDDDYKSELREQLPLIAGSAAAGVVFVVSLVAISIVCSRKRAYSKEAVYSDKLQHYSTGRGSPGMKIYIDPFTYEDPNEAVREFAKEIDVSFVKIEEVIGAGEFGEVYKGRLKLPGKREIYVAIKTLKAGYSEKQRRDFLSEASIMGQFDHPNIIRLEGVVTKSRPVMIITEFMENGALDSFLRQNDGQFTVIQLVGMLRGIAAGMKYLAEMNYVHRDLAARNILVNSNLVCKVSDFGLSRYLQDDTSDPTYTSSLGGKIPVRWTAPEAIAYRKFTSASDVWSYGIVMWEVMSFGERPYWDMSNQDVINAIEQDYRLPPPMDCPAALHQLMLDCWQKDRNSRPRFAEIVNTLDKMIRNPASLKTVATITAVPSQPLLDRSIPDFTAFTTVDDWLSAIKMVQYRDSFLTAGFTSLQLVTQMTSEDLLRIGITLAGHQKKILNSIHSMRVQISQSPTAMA

Row | Sequence | phosphorylation enrichment (AncSZ) | phosphorylation enrichment (EPHB1) | phosphorylation enrichment (EPHB2) | phosphorylation enrichment (FGFR1) | phosphorylation enrichment (FGFR3) | phosphorylation enrichment (Fer (mouse)) | phosphorylation enrichment (Fes) | phosphorylation enrichment (Fyn) | phosphorylation enrichment (Hck) | phosphorylation enrichment (Jak2) | phosphorylation enrichment (MERTK) | phosphorylation enrichment (c-Abl (mouse)) | phosphorylation enrichment (c-Src) | SH2 binding enrichment (Grb2 SH2) | SH2 binding enrichment (SHP2-C SH2) | SH2 binding enrichment (c-Src SH2)
1 | PGAPAYCVLME [MYO5A_Y1245_R1246C] | 1.64 | 3.07 | 1.5 | 1.58 | 1.64 | 0.876 | 1.44 | 1.12 | 1.38 | 1.25 | 4.03 | 1.27 | 0.964 | 0.628 | 0.549 | 0.883
2 | PGDGEYFTLQI [TP53_Y327_L323G] | 2.91 | 0.895 | 0.892 | 10.5 | 7.71 | 0.651 | 1.57 | 3.54 | 1.95 | 4.13 | 0.705 | 1.75 | 4.02 | 0.895 | 0.677 | 0.275
3 | PGIRMYQVQFN [LRFN1_Y454_YF] | 0.619 | 0.467 | 0.505 | 0.31 | 0.531 | 0.423 | 0.863 | 0.504 | 0.384 | 0.789 | 0.349 | 0.636 | 0.583 | 1.61 | 1.12 | 0.997
4 | PGLSSYGVPAS [FLNB_Y1530] | 0.677 | 0.543 | 0.435 | 0.56 | 0.526 | 0.408 | 0.738 | 0.661 | 0.482 | 0.599 | 0.497 | 0.913 | 0.474 | 0.898 | 0.658 | 0.545
5 | PHIKTYMRPSP [TDP1_Y497] | 0.702 | 0.645 | 0.518 | 0.629 | 0.547 | 0.543 | 0.688 | 0.861 | 0.441 | 0.586 | 0.429 | 0.654 | 0.435 | 0.829 | 0.777 | 0.695
6 | PIYEGYGLPHA [ACTA1_Y171_A172G] | 1.32 | 31 | 33.5 | 0.555 | 0.945 | 20.9 | 2.45 | 17.5 | 16.9 | 0.833 | 18.3 | 12.7 | 13.8 | 0.79 | 0.52 | 0.739
7 | PKAWNYELPAT [PROM1_Y34] | 1.23 | 0.761 | 0.997 | 0.582 | 0.574 | 0.72 | 0.972 | 0.822 | 0.597 | 0.894 | 0.59 | 0.735 | 0.414 | 0.996 | 0.631 | 0.851
8 | PKEEPYQMQEK [SLC5A3_Y565] | 2.33 | 0.964 | 1.26 | 1 | 1.21 | 0.687 | 1.92 | 0.784 | 0.566 | 1.17 | 0.691 | 0.943 | 0.923 | 0.78 | 0.614 | 0.457
9 | PKEQKYSFLQN [GH1_Y68] | 0.972 | 0.465 | 0.951 | 0.719 | 0.978 | 0.627 | 0.862 | 0.692 | 0.577 | 0.688 | 1.18 | 0.625 | 0.554 | 0.909 | 1.06 | 1.05
10 | PKFHSYVSLPF [PLXNA2_Y293] | 1.35 | 1.38 | 1.01 | 1.86 | 1.82 | 0.713 | 1.66 | 0.903 | 1.14 | 1.59 | 1.22 | 0.801 | 0.734 | 0.992 | 1.47 | 2.17
11 | PKGIGYGQGAG [CSRP3_Y73] | 0.458 | 0.396 | 0.469 | 0.731 | 0.513 | 0.492 | 0.721 | 0.525 | 0.4 | 0.474 | 0.462 | 0.422 | 0.308 | 0.823 | 0.43 | 0.489
12 | PLDGEYFTRQI [TP53_Y327_L330R] | 1.09 | 0.441 | 0.435 | 0.387 | 0.651 | 0.291 | 1.01 | 0.547 | 0.686 | 0.637 | 0.54 | 1.2 | 0.841 | 0.692 | 0.836 | 0.675
13 | PLFRKYWPNHI [GREB1L_Y1560_YF] | 1.17 | 0.589 | 0.498 | 0.505 | 0.565 | 0.482 | 0.994 | 0.698 | 0.727 | 0.695 | 0.633 | 0.557 | 0.491 | 0.855 | 0.973 | 0.461
14 | PLLLSYYLIKW [NUP160_Y773] | 1.33 | 1.14 | 0.947 | 4.29 | 3.73 | 0.633 | 1.83 | 0.358 | 0.628 | 4.49 | 1.68 | 1.2 | 0.854 | 1.29 | 1.45 | 0.966
15 | PLTKVYVVEGS [ZMPSTE24_Y253] | 0.814 | 0.487 | 0.538 | 0.494 | 0.73 | 0.567 | 0.952 | 0.494 | 0.441 | 0.526 | 0.418 | 0.617 | 0.554 | 0.841 | 0.743 | 0.529
16 | PLYSKYWPNHI [GREB1L_Y1560_R1558S] | 2.47 | 19.1 | 29.7 | 5.11 | 3.06 | 12.3 | 1.27 | 19.9 | 17.4 | 6.37 | 20.1 | 22.6 | 11.8 | 1.2 | 0.732 | 0.608
